PMC13313556, “Development and characterization of triazole-based WDR5 inhibitors for the treatment of glioblastoma” (JCI Insight, 2026)

Target: His6-SUMO-WDR5 (recombinant human WD-repeat containing protein 5, residues Ser22-Cys334) (human, UniProt P61964 22-334)
Assay: AlphaScreen or HTRF; competitive TR-FRET: 1 nM LanthaScreen Elite Tb-anti-His antibody, 150 nM 10-mer-Thr-FAM peptide, 2 nM His6-SUMO-WDR5 in 1X PBS pH 7.2, 300 mM NaCl, 0.5 mM TCEP, 0.1% CHAPS; 1 hour at room temperature; small-molecule inhibitors titrated to displace the peptide
Details: both partners purified

binding result: binds
B1: 10-mer-Thr-FAM peptide probe (ARTEVHLRKS-[Ahx-Ahx][Lys-(5-FAM)]) (peptide)
peptide: ARTEVHLRKS
modifications: C-terminal Ahx-Ahx followed by Lys-(5-FAM)
notes: WIN-site peptide probe; After the ten printed residues come two aminohexanoic acid (Ahx) units and a lysine that carries 5-FAM; also called labeled WIN-site peptide; labeled WIN-peptide; source: synthetic peptide (GenScript)
